We go through one substance from publication doi:10.1101/2020.10.01.322081.

“And” between values parts separate entries of the source, which are not always exact repeats. Identical values can stand only once. Like-named read-outs stand apart in the source and are kept apart here.

Assay [1] deals with HIV-1 Gag polyprotein in the immature Gag lattice of purified virus particles (HIV-1). The experiment in a line: cryo-EM structure.
For assay [2] the target is unchanged. The experiment in a line: cryo-EM structure. The source holds these as a separate data set.

In general, stoichiometry N refers to the number of molecules, sites or subunits per partner or assembly. For the substance “HIV-1 Gag polyprotein in the immature Gag lattice of purified virus particles (natural protein)”, the stoichiometry N in assay [1] is 2; in assay [2] it was 3 and 5.
